Target: T1, recombinant mouse CTLA-4 protein (mouse, UniProt P09793 36-162, limits assumed)
T1 construct: also called CTLA-4 protein from mice
Experiment: ELISA, CTLA-4 protein coated on plate, anti-human IgG Fc-peroxidase detection
Experimental: The binding activity of the anti-CTLA-4-IL-15Ra-sushi-IL-15 fusion protein to recombinant CTLA-4 protein which originated from different species, including human, cynomolgus monkey, rat, and mouse, was determined by Enzyme Linked Immunosorbent Assay (ELISA). Briefly, 96-well plates were coated overnight at 4° C. with […] of CTLA-4 protein diluted in PBS. Plates were blocked with 1% bovine serum albumin (BSA) for an hour at room temperature, and then incubated for additional 2 hours with the anti-CTLA-4-IL-15Ra-sushi-IL-15 fusion protein, Ipilimumab, or human IgG1 isotype control, at a 2-fold serial dilution starting from 1 μg/mL. Goat anti-human IgG (Fc specific)-peroxidase antibody (Sigma, 1:5000 dilution) was added to the plates and incubated for 1 hour at room temperature. After washing, the 3, 3′, 5, 5′-Tetramethylbenzidine (TMB) substrate was added to the wells to develop color and the absorbance at 450 nm was measured using the Multiskan plate reader (Thermo). Optical Density 450 (OD450) values were plotted against antibody concentration.

binding result: no binding
B1: Ipilimumab (antibody, V domains shown)
VH: QVQLVESGGGVVQPGRSLRLSCAASGFTFSSYTMHWVRQAPGKGLEWVTFISYDGNNKYYADSVKGRFTISRDNSKNTLYLQMNSLRAEDTAIYYCARTGWLGPFDYWGQGTLVTVSS
VL: not shown
notes: also called anti CTLA-4 antibody; CTLA-4 antibody
